Test: yeast display, Sf9 membrane polyspecificity reagent, FACS + sequencing; frameworks hold sequencing errors
Method in brief: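 After 36–48 hours of galactose induction, yeast (Saccharomyces cerevisiae BJ5465) displaying a synthetic nanobody library were stained at 4 °C for 1 hour with 10% biotinylated, detergent-solubilized Sf9 membrane reagent. Streptavidin microbeads enriched the stained cells before FACS sorting into low and high (top ~1%) gates on anti-HA and streptavidin fluorescence. Each clone's polyreactivity label reflects its gate of origin.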

Row | Sequence | polyreactivity (PSR sort gate)
1 | QVQLVESVGGLVQAGGSLRLSCAASGRIFDSYTMGWYRQAPGKERELVAAISRGGGSTYYADSVKGRFTISRDNAKYTVYLQMNSLKPEDTAVYYCAASSYLNSRFKFDYWGQGTQVTVSS | low polyreactivity
2 | QVQLVESVGGLVQAGGSLRLSCAASGRIFGFSTMGWYRQARGKDRELVATISWSGSGTYYADSVKGRFTISRDNAYNTVYLQMNRLKPEDTAVYYCNADWYYFGYDYWGQGTQVTVST | low polyreactivity
3 | QVQLVESVGGLVQAGGSLRLSCAASGRIFGRYAMGWYRQAPGKESELVAAISTNGGRTYYADSVKGRFTISRDNAKNTVYLQRKSLKPEDNADYYCARAYRGPGYVIRYDYWGQGTQVTVSS | high polyreactivity
4 | QVQLVESVGGLVQAGGSLRLSCAASGRIFKWYAMGWYRQAPGKERELVAAITSGGGSTYYADSVKGRFTISRDNAKNTVYLQINSLKPEDTAVYYCNAKAPAEIRSYLRTSRYDYWGQGTQVTVSS | high polyreactivity
5 | QVQLVESVGGLVQAGGSLRLSCAASGRIFPTYAMGSSRQAPGKERELVAAISRSGGRTYYADSVKGRFTSSRDNAKNTVYLQMNSLKPEDTAVYYCNAEGDPYVDFPSRSTGYDYWGQGTQVTVSS | high polyreactivity
6 | QVQLVESVGGLVQAGGSLRLSCAASGRIFRFYAMGWYRQAPGKERELVAAISSSGVRTYYADSVKGRFTISRDNAKKTVYLQINSLTPEDTAVYYCAASRHFARHRGYYFRYDYWGQGTQVTVSS | high polyreactivity
7 | QVQLVESVGGLVQAGGSLRLSCAASGRIFRYYAMGWSSQAPGKESELVAAITSDGRTYYADSVKGRFTISRDNAKNTVYLQMNSQKPEDTAVYYCAADHHSYRYGGYYYWGQGTQVTVAS | low polyreactivity
8 | QVQLVESVGGLVQAGGSLRLSCAASGRTFDGNAMGWYRQAPGKERELVAAIRFNGSTTYYADSVKGRFTISRDNSKNTVYLQMNSLKPEDTAVYYCNKFEGALGGMDYWGQGTQVTVSS | low polyreactivity
9 | QVQLVESVGGLVQAGGSLRLSCAASGRTFGGNAMGWYRQAPGKERELVAVITGSGARTYYADSVKGRFTISRDNAKNTVYLQMNSLKPEDTAVYYCAAAGYSGQYRSYYWGQGTQVTVSS | high polyreactivity
10 | QVQLVESVGGLVQAGGSLRLSCAASGRTFGRKALVWYTQAPGKERELVAAISTSGSRTYYADSVKGRFTISRDNAKNTVYLQLNSLTPEDTAVYYCYAYGVSRGSYGTRGYWGQGTQVTVSS | high polyreactivity
11 | QVQLVESVGGLVQAGGSLRLSCAASGRTFGRYAMGWDRQAPGKERELVAAISWSGATTYYADSVKGRFTISRDNAKNTVYLQMNSLKPEDTAVYYCAARFRRGITYEYWGQGTQVTVSS | high polyreactivity
12 | QVQLVESVGGLVQAGGSLRLSCAASGRTFGRYAMGWYRQAPGKERELVAGISRSGDSTHYADSVKGRFTISRDNAKNTVYLQMNSLKPEDTAVYYCNKETPTNGARKYEYWGQGTQVTVSS | low polyreactivity
13 | QVQLVESVGGLVQAGGSLRLSCAASGRTFLRNAMGWYRQAPGKERELVASITSRGGRTYADSVKGRFTISRDNAKNTVYLQMNSLKPEDTAVYYCAARRQAGLRYDYWGQGTQVTVSS | high polyreactivity
14 | QVQLVESVGGLVQAGGSLRLSCAASGRTFMYNAMGWYRQAPGKERELVAAISWSGGSTYYADSVKGRFTISRDNAKNTVYFLMNSLKPEDTAVYYCAATGRRSGFYFWGQGTQVTVSS | high polyreactivity
15 | QVQLVESVGGLVQAGGSLRLSCAASGRTFPYYAKGGYRQAPWKERELVATISSGGITNYADSVKVRFTISRDNAKNTVYLQMNSLKPEDTAVYYCAADRHWSAGLWRYDYWGQGTQVTVSS | high polyreactivity
16 | QVQLVESVGGLVQAGGSLRLSCAASGRTFVRYTMGWYRQAPGKERELVAAITWSGGSTYYADSVKGRFTISRDNATNTVYLQMNSLKPEDTAVYDCAARTYFGTQLQRYYWGQGTQVTVSS | high polyreactivity
17 | QVQLVESVGGLVQAGGSLRLSCAASGRTLRYYAMGWYRQAPGKERELVATITRRSGSTYYADSVKGRFTISRDNAKNTVYLQMNSLKPEDTAVYYCNAVWRPGERDYWGQGTQVTVSS | low polyreactivity
18 | QVQLVESVGGLVQAGGSLRLSCAASGSIEAYAMGWYRQAPGKERELVASITWRGGSTYYADSVKGRFTISRDNAKNTVYLQMNSLKPEDTAVYYCAAGFQTRTPLNQFDYWGQGTQVTVSS | low polyreactivity
19 | QVQLVESVGGLVQAGGSLRLSCAASGSIFAIYVMGSYRQAPGKERELVAAISYRSGSTYYADSVKGRFTISRDNAKNTVYLQMNSLKPEDTAVYYCAATSRYYTFGYWGQGTQVTVSS | low polyreactivity
20 | QVQLVESVGGLVQAGGSLRLSCAASGSIFAPYAMGWYRQAPGKERELVAAITWSGDSTYYADSVKGRFTISRDNAKNTVYLQMNSLKPEDTAVYYCATEEVYGQGNYWGQGTQVTVSS | low polyreactivity
21 | QVQLVESVGGLVQAGGSLRLSCAASGSIFAVNAMGWYRKAPGTERELVAAITSSGVDTYYADSVKGRFTISRDNAKNTVYLQMNSLKPEDTAVYYCAADDQLNWYDYWGQGTQVTVSS | low polyreactivity
22 | QVQLVESVGGLVQAGGSLRLSCAASGSIFHYNALGWYRPAPGKERELVAAITSGGSTYADSVKGRFTISRDNAKNTVYLQMNSLKPEDTAVYYCNADSVGPRGDLGYWGQGTQVTVSS | low polyreactivity

Row | Sequence | polyreactivity (PSR sort gate)
23 | QVQLVESVGGLVQAGGSLRLSCAASGSIFLQYTMGWYRQAPGKERELVAAITESDGSTYYADSVKGRFTISRDNAKNTVYLQMNSLKPEDTAVYYCAADVVYFKYWDKYDYWGQGTQVTVSS | low polyreactivity
24 | QVQLVESVGGLVQAGGSLRLSCAASGSIFRLYAMGWYRQAPGKERELVAAITWSGGSTYYADSVKGRFTISRDNAKNTVYLQMNSLKPEDTAVYYCNALVGGYRSAIFGYWGQGTQVTVSS | high polyreactivity
25 | QVQLVESVGGLVQAGGSLRLSCAASGSIFSSYAMGWYRQAPGKERELVAAITSGGSTYYADSVKGRFTISRDNAKNTVYLQMNSLKPVDPAVYYCAAREVLTSKLHMGYWGTGTQVTVSS | low polyreactivity
26 | QVQLVESVGGLVQAGGSLRLSCAASGSIFTYNAMGWYRQAPGKERELVAAITTSGDSTYYADSVKGRFTISRDNAKNTVYLQMNSLKPEDTAVYYCNADWSWYNYYDFDYWGQGTQVTVSS | low polyreactivity
27 | QVQLVESVGGLVQAGGSLRLSCAASGSIFVKNAMGWYRQAPGKEREFVAVISTGDSTHYADSVKGRFTISRDNAKNTVYLQMNSLKPEDTAVYYCAARYYSYGSSYGYWGQGTQVTVSS | high polyreactivity
28 | QVQLVESVGGLVQAGGSLRLSCAASGSIFVKNAMGWYRQAPGKERELVAVITIRTATTYYADSVKGRFTISRDNAKNTVYLQMNSLKPEDTAVYYCAAAKRQRGYLQREYDYWGQGTQVTVSS | low polyreactivity
29 | QVQLVESVGGLVQAGGSLRLSCAASGSIFYWSAMGWYRQAPGKERELVAAISSGGSTNYADSVKGRFTISRDNAKNTVYLQMNSLKPEDTAVYYCAAGWDASYGYDYWGQGTQVTVSS | low polyreactivity
30 | QVQLVESVGGLVQAGGSLRLSCAASGSNFYVNAMGWYRQAPGKERELVAAISRRGGSTYYADSVKGRFTISRDNAKNTVSLQMNSLKPEDTAVYYCNKAIRGQAPSGPEYYYWGHGTQVTVSS | high polyreactivity
31 | QVQLVESVGGLVQAGGSLRLSCAASGSTFGIYTMGWYRQAPGKERELVAAISSRGGSTYYADSVKGRFTISRDNAKNTVYLQMNSLKPEDTAVYYCAAVGRSHSRPYTDEYWGQGTQVTVSS | high polyreactivity
32 | QVQLVESVGGLVQAGGSLRLSCAASGSTFGYYTMGSYRQAPGKEKELVAAITWSGGSTYYADSVKGRITISRDNAKYTVYLQINSLKPEDTAVYYCADDDYWTPFGYLGQGTQVTVSS | low polyreactivity
33 | QVQLVESVGGLVQAGGSLRLSCAASGSTFHRNTMGWDRQAPGKERELVAGISLRGVRTYYADSVKGRFTISRDKAKNTVYLQMNSLKPEDTAVYYCAAGCPYTRNFKLGYWGQGTQVTVSS | high polyreactivity
34 | QVQLVESVGGLVQAGGSLRLSCAASGSTFIIYAMGWYRQAPGKERELVATISTRGTSTYYADSVKGRFTISRDNEKNTVYLQMKSLKPEDTAVYYCNARRRGYGNRYTFDYWGQGTQVTVSS | high polyreactivity
35 | QVQLVESVGGLVQAGGSLRLSCAASGSTFRPYAMGWSRQAPGKERELVAAITGSGGSTYYADSVKGRFTISRDNAKNTVYLQMNSLKPEDTAVYYCNAVSTWRYYYWGQGTQVTVSS | high polyreactivity
36 | QVQLVESVGGLVQAGGSLRLSCAASGSTFRYYAMGWYRQAPGKERELVAAITGSGGSTYYADSVKGRFTISRDNAKNTVYLQMNSLKPEDTAVYYCAAYCSRSILRYDSWGQGTQVTVSS | high polyreactivity
37 | QVQLVESVGGLVQAGGSLRLSCAASGSTFTAYAMGWYRQAPGKERELVAAITSGGSKNYADSVKGRFTISRDNAKNTVYLQMNSLKPEDTAVYYCNADDYWLDSWSSFLWYDYWGQGTQVTVSS | low polyreactivity
38 | QVQLVESVGGLVQAGGSLRLSCAASGSTFTSNAMGWYRQAPGKEREFVAAISVGGGITYYADSVKGRFTISRDNAKNTVYLQMNSLKPEDTAVYYCAADAWSVILWREMDYWGQGTQVTVSS | low polyreactivity
39 | QVQLVESVGGLVQAGGSLRLSCAASGSTFWYNAMGWYRLAPGKERELVAAISQSGGRTYYADSVKGRFTISRDNAKNTVYLQMNSLKPEDTAVYYCNAVSRDKSLYDYWGQGTQVTVSS | high polyreactivity
40 | QVQLVESVGGLVQAGGSLRLSCAASGSTIDGYAMGCYIQAPGKEREFVAAISFSSASTYYADSVKGRFTISRDNAKNTVYLQMNSLKPEDTAVYYCNADFFDSGGSIEDDSWGQGTQVTVSS | low polyreactivity
41 | QVQLVESVGGLVQAGGSLRLSCAASGYILPKNTMGWYIQAPGKERELVAAISWSGGSTFYADSVKGRFTISRDNAKNTVYLQMNRLKPEDTAVYYCAADRSWSWYYRYDYWGQGTQVTVSS | low polyreactivity
42 | QVQLVESVGGLVQAGGSLRLSCAASVYMFYDYDMGWYRQAPGKAREFVARITSDGSTYADSVKGRFTISRDNAKNTVYLQMNMLKPEDTAVYYCNRKSRSYFWSVQDSFKYDYWGQGTQVTVSS | low polyreactivity
43 | QVQLVESVGGLVQAGGSLRLSCAGSGFTFYRYTMGWYRQAPGTERELVAAISFSGGITRYADSVKGRFTISRDNAKNTVYLQMNSLKPEDTAVYYCNVVGPSAYLSWHKSGDYWGQGTQVTVSS | low polyreactivity

Source: the nanobody polyreactivity screen of Harvey et al. (2022)
